From paper PMC12427885 (Foods, 2025)

Experiments:
NCCc1ccc(O)cc1 = test: purified protein; conditions: apparent, 25 mM potassium phosphate pH 6.8, 37 °C, 0.005-3 mM tyramine, partially purified enzyme
[1] = target: diamine oxidase from Glutamicibacter halophytocola (DAO-GH) (Glutamicibacter halophytocola); test: SEC; HiLoad 16/600 Superdex 200 prep grade; 50 mM sodium phosphate, 150 mM NaCl, pH 7; 1 mL/min; HIC-purified (partially purified) DAO-GH; fractions analysed for DAO activity; calibrated with the high molecular weight gel filtration kit; native mass compared with the monomer's mass
DAO-GH = target: T1, DAO-GH (Glutamicibacter halophytocola, UniProt Z9MBQ1XXX8); test: DA-67/horseradish peroxidase coupled H2O2 assay, […] nm; Michaelis-Menten nonlinear regression; assay type: biochemical; conditions: substrate inhibition by tyramine; second site; 25 mM potassium phosphate pH 6.8, 37 °C; partially purified enzyme
T1 construct: gene from G. halophytocola isolate, codon-optimized, intracellular expression in Komagataella phaffii; partially purified (PEI, ammonium sulfate, HIC)
T1 sequence (Z9MBQ1XXX8 1-653): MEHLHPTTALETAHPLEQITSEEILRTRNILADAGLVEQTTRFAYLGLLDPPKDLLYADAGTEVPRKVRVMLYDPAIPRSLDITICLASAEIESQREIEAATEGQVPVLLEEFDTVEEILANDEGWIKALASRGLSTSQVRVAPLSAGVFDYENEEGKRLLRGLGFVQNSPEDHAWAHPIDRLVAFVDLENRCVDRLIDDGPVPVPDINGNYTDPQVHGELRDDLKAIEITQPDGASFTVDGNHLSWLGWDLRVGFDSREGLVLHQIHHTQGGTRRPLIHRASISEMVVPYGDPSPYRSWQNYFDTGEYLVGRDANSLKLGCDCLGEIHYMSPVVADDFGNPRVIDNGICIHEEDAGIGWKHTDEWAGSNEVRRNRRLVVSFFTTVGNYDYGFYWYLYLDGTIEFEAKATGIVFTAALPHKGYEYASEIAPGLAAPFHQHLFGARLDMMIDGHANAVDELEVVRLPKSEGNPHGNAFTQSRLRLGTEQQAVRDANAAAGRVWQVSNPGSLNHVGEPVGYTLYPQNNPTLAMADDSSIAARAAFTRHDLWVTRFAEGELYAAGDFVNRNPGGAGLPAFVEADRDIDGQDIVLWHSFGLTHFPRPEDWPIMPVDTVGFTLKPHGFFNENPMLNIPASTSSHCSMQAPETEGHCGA

DAO-GH (Glutamicibacter halophytocola)
Km (NCCc1ccc(O)cc1): 9 ± 0.2 µM

diamine oxidase from Glutamicibacter halophytocola (DAO-GH) (enzyme)
stoichiometry N [1]: 2

NCCc1ccc(O)cc1 [tyramine]
Ki (DAO-GH): 10.4 ± 4.0 mM
